Laboratory results reported in patent US20070212705.
Like-named read-outs stand apart in the source and are kept apart here.

T1: Tetrapeptide Lys substrate L-Ala-γ-D-Glu-L-Lys-D-Ala
T1 chain: AEKA


Target: T1, Tetrapeptide Lys substrate …

Row | Protein | cleavage of tetrapeptide substrate (RFU, Amplex Red detection of D-alanine released) | cleavage of tetrapeptide substrate | cleavage of tetrapeptide substrate (RFU, Amplex Red detection of D-alanine released) (scale: fold lower specific activity compared to E. coli LDC)
1 | E. coli LDC protein (muramoyl-tetrapeptide carboxypeptidase P76008) (protein) MSLFHLIAPSGYCIKQHAALRGIQRLTDAGHQVNNVEVIARRCERFAGTETERLEDLNSLARLTTPNTIVLAVRGGYGASRLLADIDWQALVARQQHDPLLICGHSDFTAIQCGLLAHGNVITFSGPMLVANFGADELNAFTEHHFWLALRNETFTIEWQGEGPTCRAEGTLWGGNLAMLISLIGTPWMPKIENGILVLEDINEHPFRVERMLLQLYHAGILPRQKAIILGSFSGSTPNDYDAGYNLESVYAFLRSRLSIPLITGLDFGHEQRTVTLPLGAHAILNNTREGTQLTISGHPVLKM | illustrates the cleavage of a tetrapeptide substrate (L-Ala-γ-D-Glu-L-Lys-D-Ala) by E. coli LDC (squares) | – | –
2 | P. aeruginosa L-D carboxypeptidase A (PA LDC), N-terminal his-tagged, expressed from pET14b in E. coli BL21 (protein) MTSRPSSDQTWQPIDGRVALIAPASAIATDVLEATLRQLEVHGVDYHLGRHVEARYRYLAGTVEQRLEDLHNAFDMPDITAVWCLRGGYGCGQLLPGLDWGRLQAASPRPLIGFSDISVLLSAFHRHGLPAIHGPVATGLGLSPLSAPREQQERLASLASVSRLLAGIDHELPVQHLGGHKQRVEGALIGGNLTALACMAGTLGGLHAPAGSILVLEDVGEPYYRLERSLWQLLESIDARQLGAICLGSFTDCPRKEVAHSLERIFGEYAAAIEVPLYHHLPSGHGAQNRAWPYGKTAVLEGNRLRW | – | express a functional PA LDC protein that cleaved a tetrapeptide substrate in a dose dependent manner | 2
